One data set addresses T1, bTAFI (Bos taurus, UniProt Q2KIG3).
T1 sequence (Q2KIG3 115-423): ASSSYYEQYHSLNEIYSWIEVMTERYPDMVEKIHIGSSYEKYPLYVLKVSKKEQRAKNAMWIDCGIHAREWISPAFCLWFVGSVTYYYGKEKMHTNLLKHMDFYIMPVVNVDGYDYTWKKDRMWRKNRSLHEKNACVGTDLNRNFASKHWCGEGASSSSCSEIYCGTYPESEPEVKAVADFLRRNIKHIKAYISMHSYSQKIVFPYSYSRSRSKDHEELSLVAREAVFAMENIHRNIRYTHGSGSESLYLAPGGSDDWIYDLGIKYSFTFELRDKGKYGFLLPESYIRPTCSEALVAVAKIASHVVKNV
In words: Ki determination, tight-binding inhibition of metallocarboxypeptidase. The class given is biochemical, bovine. Particulars: tight-binding equation fit; substrate AAFA 0.1mM; enzyme-inhibitor mixture not preincubated; 37 °C; means (n = 3) ± SD. The method, then: Inhibitory activities against CPA- and CPB-type forms (bovine and human variants of CPA1, CPA2, CPA4, CPB1, and TAFI) were assayed for all extracts, subject to the experimental conditions that enzyme (E), substrate (S) and inhibitor (I) concentrations as well as the [I]/[E] ratio and preincubation time followed the requirements for tight-binding inhibitor assays. Similar approaches were followed to measure the activities of proteases of different catalytic types, like pepsin, papain, trypsin and subtilisin [45, 46, 47, 48]. All assays were performed in triplicate at 25 °C in a multiplexed manner. For 96-well assays an iEMS spectrophotometer reader/dispenser FM (Labsystems, Finland) was used with a final reaction volume of 250 μL. […] The reactions were followed at 5 s intervals for 5 min and recorded as initial velocities. […]
The Ki values of natural and recombinant NvCI against bCPA1, hCPA1, hCPA2, rat CPA3, hCPA4, hCPB1, bTAFI, hTAFI, hCPD and hCPZ were determined by measuring the enzymatic residual activity (Vi/V0 = a) at different inhibitor concentrations and using a fixed enzyme and substrate concentrations as described above, where vi and v0 are the fraction of enzymatic activity in the presence and absence of inhibitor, respectively, in terms of initial velocities. […]

The subject of another data set is bCPA and hCPA1. The data set can be described thus: Competitive (double) titration with the tight-binding inhibitor TCI. To be noted: competing assays with the similar tight-binding inhibitor TCI. The format is biochemical.
Data set [1] deals with serine, cysteine and aspartic proteases. The data set can be described thus: Inhibition of proteases of other catalytic types. Particulars: even at tenfold excess; pepsin, papain, trypsin and subtilisin assays, 25 °C, triplicate. The class given is biochemical. The method, then:
Inhibitory activities against CPA- and CPB-type forms (bovine and human variants of CPA1, CPA2, CPA4, CPB1, and TAFI) were assayed for all extracts, subject to the experimental conditions that enzyme (E), substrate (S) and inhibitor (I) concentrations as well as the [I]/[E] ratio and preincubation time followed the requirements for tight-binding inhibitor assays. Similar approaches were followed to measure the activities of proteases of different catalytic types, like pepsin, papain, trypsin and subtilisin [45, 46, 47, 48]. All assays were performed in triplicate at 25 °C in a multiplexed manner. For 96-well assays an iEMS spectrophotometer reader/dispenser FM (Labsystems, Finland) was used with a final reaction volume of 250 μL. For cuvette assays, a Cary 400 Bio spectrophotometer (Varian Inc., Palo Alto, CA, USA) spectrophotometer was used with a final reaction volume of 1 ml. The reactions were followed at 5 s intervals for 5 min and recorded as initial velocities. In the protease inhibition assays, mixtures of activity buffer, biological sample and enzyme were preincubated at 25 °C for 10min, before substrate addition. The assay conditions were as follows: for CPA-like enzymes, 7.0nM CPA, 0.1mM AAFP substrate in 20mM Tris-HCl pH 7.5, 500mMNaCl, 1% v/v dimethyl sulfoxide (DMSO), 0.05% w/v BRIJ-35 was used. […]

The subject of another data set is CPA1 forms. The data set can be described thus: Apparent binding kinetics, effect of preincubation time. The class given is biochemical. To be noted: preincubation over different periods of time, titration and equilibrium conditions. The procedure:
(§1) The Ki values of natural and recombinant NvCI against bCPA1, hCPA1, hCPA2, rat CPA3, hCPA4, hCPB1, bTAFI, hTAFI, hCPD and hCPZ were determined by measuring the enzymatic residual activity (Vi/V0 = a) at different inhibitor concentrations and using a fixed enzyme and substrate concentrations as described above, where vi and v0 are the fraction of enzymatic activity in the presence and absence of inhibitor, respectively, in terms of initial velocities. […] Working temperature was 37 °C. The best estimates of Ki values were obtained by fitting the experimental data to the equation for tight-binding inhibitors by non-linear regression using the GraphPad Prisma 5 software (GraphPad Software, Inc., San Diego, CA, USA) at p < 0.05. The real Ki values against each of these A/B-type MCPs were calculated according to the equation described by Morrison and Copeland [19, 20].

The next data set deals with different MCPs. The description is as above. The format is biochemical. Particulars: preincubation over different periods of time, titration and equilibrium conditions. The procedure:
as §1

The subject of another data set is HepG2 cells. In words: Cytotoxicity, XTT assay. Particulars: 72 h incubation, 2 to 250 µg/ml, three independent experiments. The class given is cell-based, human. The procedure:
Cytotoxicity effect of NvCI was tested in a cell culture system using the human hepatocyte cell line HepG2 (American Type Culture Collection (ATCC)). The cells were grown in Dulbecco’s modified Eagle’s medium (DMEM) medium supplemented with 10% (v/v) heat inactivated fetal bovine serum, 2 mM glutamine (Life Technologies Inc.), in a highly humidified atmosphere of 90% air with 10% CO2 at 37 °C. Growth inhibitory effect was measured by the microculture tetrazolium [2,3-bis-(2-methoxy-4-nitro-5-sulfophenyl)-2H-tetrazolium-5-carboxanilide, XTT] assay. Following the addition of different inhibitor concentrations to quadruplicate wells, plates were incubated at 37 °C for 72 h. Aliquots of 20 µl of XTT solution were then added to each well. After 3 h, the color formed was quantitated by a spectrophotometric plate reader (PerkinElmer Victor3 V) at a wavelength of 490 nm. Cell viability was expressed as a percentage of the control level.
Cell viability of HepG2 cells after 72 h incubation with NvCI at various concentrations (2 to 250 µg/ml). Untreated cells were used as controls. Data represent the mean and standard error of the mean (SEM) of three independent experiments.

In another data set the target is T2, pCPB (Sus scrofa (Pig), UniProt P09955).
T2 chain: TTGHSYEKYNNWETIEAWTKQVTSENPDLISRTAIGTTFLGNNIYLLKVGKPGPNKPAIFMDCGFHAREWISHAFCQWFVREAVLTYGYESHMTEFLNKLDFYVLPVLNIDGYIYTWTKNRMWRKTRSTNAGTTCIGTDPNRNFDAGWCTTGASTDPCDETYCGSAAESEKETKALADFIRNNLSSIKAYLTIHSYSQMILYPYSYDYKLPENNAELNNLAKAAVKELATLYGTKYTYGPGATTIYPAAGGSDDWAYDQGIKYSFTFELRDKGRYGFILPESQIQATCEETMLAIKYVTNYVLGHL
The data set can be described thus: Ki, residual activity.

The target of another data set is T3, rCPA3 (Rattus norvegicus (Rat), UniProt P21961).
T3 chain: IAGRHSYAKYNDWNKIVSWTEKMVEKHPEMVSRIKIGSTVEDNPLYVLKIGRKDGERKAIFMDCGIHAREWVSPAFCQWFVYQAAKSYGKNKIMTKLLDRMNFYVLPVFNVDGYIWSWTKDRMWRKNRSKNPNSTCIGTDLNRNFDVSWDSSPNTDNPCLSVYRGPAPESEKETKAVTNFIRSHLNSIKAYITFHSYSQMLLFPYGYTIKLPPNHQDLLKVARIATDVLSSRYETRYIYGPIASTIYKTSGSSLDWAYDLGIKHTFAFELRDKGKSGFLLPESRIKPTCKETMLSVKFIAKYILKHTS
The data set can be described thus: Ki, residual activity.

No end group written: not given here.

With “NvCI: 53-residue, three-disulphide proteinaceous metallocarboxypeptidase inhibitor from the marine snail Nerita versicolor; major isoform; UniProt P86912 (FHVPDDRPCINPGRCPLVPDATCTFVCKAADNDFGYECQHVWTFEGQRVGCYA; disulfide (positions not given here); also: three disulphides, pairing not given here; UniProt P86912 1-53, looked up)”, the Ki with bTAFI was determined as 0.121 ± 0.0201 nM. Further, the “inhibitory capability / maximum potential activity by competitive titration” value in the data set with bCPA and hCPA1 came to 50.4%. Further, the “inhibition of serine, cysteine and aspartic proteases” value in data set [1] was “unable to inhibit”. Besides, the binding behaviour result in the data set on CPA1 forms is recorded as “slow binding behavior”; in the data set on different MCPs it was “fast binding”. Besides, the “cytotoxicity / cell viability” value in the data set with HepG2 cells is on record as “None of the NvCI concentrations assayed exhibited substantial cytotoxicity”.

B1: NvCI (protein)
chain: FHVPDDRPCINPGRCPLVPDATCTFVCKAADNDFGYECQHVWTFEGQRVGCYA
modifications: disulfide (positions not given here); not fully specified (bridges); ends not checked
As for B1, the Kd in the data set with pCPB turned out to be 0.335 nM; in the data set with rCPA3, 0.1 nM.

The record behind these values is PMC6780499, “Characterization, Recombinant Production and Structure-Function Analysis of NvCI, A Picomolar Metallocarboxypeptidase Inhibitor from the Marine Snail Nerita versicolor” (Marine Drugs, 2019).
